Reference: the supplement of paper PMC10065799, “High-throughput profiling of sequence recognition by tyrosine kinases and SH2 domains using bacterial peptide display” (eLife, 2023)

How the values were obtained:
AncSZ = experiment: phosphorylation enrichment, bacterial display (enrichment ratio); higher = better substrate or ligand; peptides without Tyr show the background
EPHB1 = EPHB1 (UniProt P54762); experiment: as above
EPHB2 = EPHB2 (UniProt P29323); experiment: as above
FGFR1 = FGFR1 (UniProt P11362); experiment: as above
Sequence of FGFR1 (P11362 whole entry, looked up): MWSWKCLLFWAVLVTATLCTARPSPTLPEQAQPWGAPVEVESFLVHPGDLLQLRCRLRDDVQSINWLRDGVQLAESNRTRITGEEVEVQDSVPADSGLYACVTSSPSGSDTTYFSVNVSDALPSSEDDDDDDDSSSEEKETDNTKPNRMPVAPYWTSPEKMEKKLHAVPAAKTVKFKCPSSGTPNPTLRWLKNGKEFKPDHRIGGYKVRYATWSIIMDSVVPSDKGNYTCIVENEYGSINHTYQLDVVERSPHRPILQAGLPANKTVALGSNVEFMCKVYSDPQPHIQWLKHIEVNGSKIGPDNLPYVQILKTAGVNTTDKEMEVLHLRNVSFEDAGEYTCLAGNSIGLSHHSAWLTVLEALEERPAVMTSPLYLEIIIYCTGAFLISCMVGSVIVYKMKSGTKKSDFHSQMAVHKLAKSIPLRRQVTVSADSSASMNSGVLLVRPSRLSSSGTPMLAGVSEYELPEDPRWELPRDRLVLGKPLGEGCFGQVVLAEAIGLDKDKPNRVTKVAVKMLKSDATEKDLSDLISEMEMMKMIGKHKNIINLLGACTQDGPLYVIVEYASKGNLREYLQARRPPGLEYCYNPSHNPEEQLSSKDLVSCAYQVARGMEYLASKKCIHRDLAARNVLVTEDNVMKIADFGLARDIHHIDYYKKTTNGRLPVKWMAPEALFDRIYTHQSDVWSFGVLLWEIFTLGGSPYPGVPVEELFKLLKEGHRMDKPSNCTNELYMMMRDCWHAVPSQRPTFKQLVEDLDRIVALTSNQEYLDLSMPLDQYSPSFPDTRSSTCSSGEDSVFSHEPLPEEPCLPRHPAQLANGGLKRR

FGFR3 = FGFR3 (UniProt P22607); experiment: as above
Fer (mouse) = experiment: as above
Fes = Fes (UniProt P07332); experiment: as above
Sequence of Fes (P07332 whole entry, looked up): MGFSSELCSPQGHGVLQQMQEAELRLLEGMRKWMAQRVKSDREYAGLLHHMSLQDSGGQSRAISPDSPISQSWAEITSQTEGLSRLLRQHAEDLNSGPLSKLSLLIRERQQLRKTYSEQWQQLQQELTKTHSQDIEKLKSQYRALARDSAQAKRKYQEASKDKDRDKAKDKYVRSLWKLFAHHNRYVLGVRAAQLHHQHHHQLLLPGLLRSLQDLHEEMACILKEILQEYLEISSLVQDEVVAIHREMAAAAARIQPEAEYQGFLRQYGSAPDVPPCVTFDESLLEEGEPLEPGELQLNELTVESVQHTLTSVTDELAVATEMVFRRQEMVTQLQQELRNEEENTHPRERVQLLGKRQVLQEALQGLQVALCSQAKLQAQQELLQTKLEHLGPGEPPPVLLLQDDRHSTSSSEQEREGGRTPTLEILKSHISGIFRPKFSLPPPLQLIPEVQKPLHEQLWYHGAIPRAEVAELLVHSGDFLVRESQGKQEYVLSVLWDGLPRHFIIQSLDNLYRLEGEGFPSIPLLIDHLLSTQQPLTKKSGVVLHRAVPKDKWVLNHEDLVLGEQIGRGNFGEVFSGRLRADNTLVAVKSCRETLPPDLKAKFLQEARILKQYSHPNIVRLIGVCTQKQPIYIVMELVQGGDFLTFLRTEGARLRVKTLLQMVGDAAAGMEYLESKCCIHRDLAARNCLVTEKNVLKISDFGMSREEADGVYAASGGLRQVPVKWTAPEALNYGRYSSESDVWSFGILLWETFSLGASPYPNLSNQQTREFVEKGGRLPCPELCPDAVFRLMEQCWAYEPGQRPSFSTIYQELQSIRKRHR

Fyn = Fyn (UniProt P06241); experiment: as above
Sequence of Fyn (P06241 whole entry, looked up): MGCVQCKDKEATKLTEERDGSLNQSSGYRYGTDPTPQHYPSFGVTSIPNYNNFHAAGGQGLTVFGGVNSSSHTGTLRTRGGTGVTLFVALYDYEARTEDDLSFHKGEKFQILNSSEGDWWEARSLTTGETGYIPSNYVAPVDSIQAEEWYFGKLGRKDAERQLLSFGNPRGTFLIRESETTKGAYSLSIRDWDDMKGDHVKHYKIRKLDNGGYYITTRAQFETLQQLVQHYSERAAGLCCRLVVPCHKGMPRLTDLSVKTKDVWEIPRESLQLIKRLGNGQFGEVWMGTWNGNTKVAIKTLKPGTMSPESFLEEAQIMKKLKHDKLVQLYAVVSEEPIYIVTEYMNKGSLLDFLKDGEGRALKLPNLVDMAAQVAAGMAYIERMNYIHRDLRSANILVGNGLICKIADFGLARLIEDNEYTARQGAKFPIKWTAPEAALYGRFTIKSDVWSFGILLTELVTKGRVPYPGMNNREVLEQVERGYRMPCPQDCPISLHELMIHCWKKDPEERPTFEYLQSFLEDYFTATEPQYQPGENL

Hck = Hck (UniProt P08631); experiment: as above
Sequence of Hck (P08631 whole entry, looked up): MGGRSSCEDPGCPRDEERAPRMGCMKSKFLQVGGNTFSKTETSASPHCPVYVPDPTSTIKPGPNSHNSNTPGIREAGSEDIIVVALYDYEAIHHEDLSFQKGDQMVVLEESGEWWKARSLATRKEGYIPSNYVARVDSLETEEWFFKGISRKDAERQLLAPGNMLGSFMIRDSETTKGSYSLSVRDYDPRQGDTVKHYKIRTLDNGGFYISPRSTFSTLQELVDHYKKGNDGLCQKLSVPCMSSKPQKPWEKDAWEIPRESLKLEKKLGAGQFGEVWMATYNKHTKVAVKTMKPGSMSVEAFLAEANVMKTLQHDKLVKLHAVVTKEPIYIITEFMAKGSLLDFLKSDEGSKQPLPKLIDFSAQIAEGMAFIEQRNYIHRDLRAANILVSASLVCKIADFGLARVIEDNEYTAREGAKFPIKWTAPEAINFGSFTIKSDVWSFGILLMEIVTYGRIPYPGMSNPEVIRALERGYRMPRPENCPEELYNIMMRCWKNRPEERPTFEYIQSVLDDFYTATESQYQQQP

Jak2 = Jak2 (UniProt O60674); experiment: as above
Sequence of Jak2 (O60674 whole entry, looked up): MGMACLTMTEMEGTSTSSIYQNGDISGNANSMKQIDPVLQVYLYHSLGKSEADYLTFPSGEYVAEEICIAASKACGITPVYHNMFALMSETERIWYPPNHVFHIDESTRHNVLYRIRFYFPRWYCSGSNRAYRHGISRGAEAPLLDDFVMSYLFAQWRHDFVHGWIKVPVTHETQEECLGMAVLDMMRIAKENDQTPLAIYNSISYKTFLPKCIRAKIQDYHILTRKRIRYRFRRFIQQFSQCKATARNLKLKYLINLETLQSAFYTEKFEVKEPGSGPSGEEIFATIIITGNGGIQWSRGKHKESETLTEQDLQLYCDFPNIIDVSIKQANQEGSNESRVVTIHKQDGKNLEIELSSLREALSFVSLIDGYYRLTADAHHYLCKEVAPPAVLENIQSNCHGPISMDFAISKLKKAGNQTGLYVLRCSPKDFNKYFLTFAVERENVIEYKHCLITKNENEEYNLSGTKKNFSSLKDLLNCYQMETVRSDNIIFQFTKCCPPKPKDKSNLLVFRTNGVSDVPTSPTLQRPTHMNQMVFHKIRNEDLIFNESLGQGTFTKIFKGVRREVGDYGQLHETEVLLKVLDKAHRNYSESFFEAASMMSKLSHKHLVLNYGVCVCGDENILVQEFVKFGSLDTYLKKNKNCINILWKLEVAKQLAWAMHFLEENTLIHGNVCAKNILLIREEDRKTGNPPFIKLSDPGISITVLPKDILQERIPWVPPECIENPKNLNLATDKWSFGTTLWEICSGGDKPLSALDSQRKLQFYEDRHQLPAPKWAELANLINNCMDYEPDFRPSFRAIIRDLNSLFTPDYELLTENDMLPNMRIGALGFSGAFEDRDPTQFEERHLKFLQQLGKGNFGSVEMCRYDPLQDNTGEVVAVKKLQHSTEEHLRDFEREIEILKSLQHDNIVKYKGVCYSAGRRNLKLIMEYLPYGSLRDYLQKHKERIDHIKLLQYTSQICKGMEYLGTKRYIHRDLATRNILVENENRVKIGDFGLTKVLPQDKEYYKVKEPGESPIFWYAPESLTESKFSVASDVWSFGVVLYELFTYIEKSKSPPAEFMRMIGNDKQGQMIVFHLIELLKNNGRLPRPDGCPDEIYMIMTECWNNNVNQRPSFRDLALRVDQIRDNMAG

MERTK = MERTK (UniProt Q12866); experiment: as above
Sequence of MERTK (Q12866 whole entry, looked up): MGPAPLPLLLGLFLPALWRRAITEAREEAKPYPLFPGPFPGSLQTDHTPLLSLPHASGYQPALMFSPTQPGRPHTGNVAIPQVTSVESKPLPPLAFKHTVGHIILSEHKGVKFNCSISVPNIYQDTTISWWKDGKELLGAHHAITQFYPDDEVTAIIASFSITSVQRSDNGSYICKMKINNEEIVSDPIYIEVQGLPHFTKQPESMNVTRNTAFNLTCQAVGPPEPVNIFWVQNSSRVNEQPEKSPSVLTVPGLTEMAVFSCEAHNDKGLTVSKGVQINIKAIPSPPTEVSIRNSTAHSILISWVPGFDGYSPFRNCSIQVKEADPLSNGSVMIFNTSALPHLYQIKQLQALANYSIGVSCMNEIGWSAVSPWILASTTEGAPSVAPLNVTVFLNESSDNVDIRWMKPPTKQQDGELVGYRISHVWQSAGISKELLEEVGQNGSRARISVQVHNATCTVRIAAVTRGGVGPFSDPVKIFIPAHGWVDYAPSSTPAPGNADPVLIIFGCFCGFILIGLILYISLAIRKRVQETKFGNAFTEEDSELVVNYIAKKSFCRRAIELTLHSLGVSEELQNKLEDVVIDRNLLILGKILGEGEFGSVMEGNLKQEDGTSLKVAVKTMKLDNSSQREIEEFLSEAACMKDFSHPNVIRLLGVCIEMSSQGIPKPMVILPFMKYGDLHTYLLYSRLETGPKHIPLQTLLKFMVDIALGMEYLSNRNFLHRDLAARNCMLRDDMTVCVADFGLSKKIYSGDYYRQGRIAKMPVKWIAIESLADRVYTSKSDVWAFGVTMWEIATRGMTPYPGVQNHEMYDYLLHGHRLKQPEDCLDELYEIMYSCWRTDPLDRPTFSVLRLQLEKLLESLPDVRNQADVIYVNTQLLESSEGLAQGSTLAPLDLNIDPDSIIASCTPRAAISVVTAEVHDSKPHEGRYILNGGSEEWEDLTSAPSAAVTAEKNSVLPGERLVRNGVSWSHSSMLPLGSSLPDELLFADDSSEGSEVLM

c-Abl (mouse) = experiment: as above
c-Src = experiment: as above
Grb2 SH2 = Grb2 SH2 (UniProt P62993); experiment: SH2 binding enrichment of the phosphorylated peptide, bacterial display (enrichment ratio); higher = better substrate or ligand; peptides without Tyr show the background
Sequence of Grb2 SH2 (P62993 whole entry, looked up): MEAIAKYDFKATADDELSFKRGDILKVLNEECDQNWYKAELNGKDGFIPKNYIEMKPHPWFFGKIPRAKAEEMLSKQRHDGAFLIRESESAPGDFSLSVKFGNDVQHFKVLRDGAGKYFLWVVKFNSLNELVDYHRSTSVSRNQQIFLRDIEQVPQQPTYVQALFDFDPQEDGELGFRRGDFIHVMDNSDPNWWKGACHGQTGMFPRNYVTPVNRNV

SHP2-C SH2 = experiment: as above
c-Src SH2 = experiment: as above
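Wherever SH2 binding enrichment of the phosphorylated peptide, bacterial display is given: peptide library displayed on the E. coli surface as eCPX fusions, selected cells deep-sequenced, score is each peptide's frequency after selection divided by its frequency in the input.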
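Wherever phosphorylation enrichment, bacterial display is given: 11-residue human phosphosite peptides and single-mutation variants displayed on the E. coli surface, counted by deep sequencing, each peptide's frequency after selection divided by its frequency in the unselected input library; frequency after pTyr selection over input frequency; kinase dosed for 20-30% of maximal phosphorylation in three min.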

Sequence	phosphorylation enrichment (AncSZ)	phosphorylation enrichment (EPHB1)	phosphorylation enrichment (EPHB2)	phosphorylation enrichment (FGFR1)	phosphorylation enrichment (FGFR3)	phosphorylation enrichment (Fer (mouse))	phosphorylation enrichment (Fes)	phosphorylation enrichment (Fyn)	phosphorylation enrichment (Hck)	phosphorylation enrichment (Jak2)	phosphorylation enrichment (MERTK)	phosphorylation enrichment (c-Abl (mouse))	phosphorylation enrichment (c-Src)	SH2 binding enrichment (Grb2 SH2)	SH2 binding enrichment (SHP2-C SH2)	SH2 binding enrichment (c-Src SH2)
LERYIYNPEEF [HLA-DPB1_Y59_R61P]	1.48	0.783	0.965	0.875	0.902	0.85	1.74	2.16	1.56	2.66	0.682	1.32	3.71	0.866	0.851	0.677
FFHCTYKKRMI [CLEC12A_Y242_YF]	0.894	0.444	0.612	0.386	0.637	0.39	1.06	0.364	0.468	0.816	0.321	0.532	0.39	1.28	1.15	0.944
RRAKGYPINLF [ITGB2_Y125_D128N_YF]	0.49	0.576	0.613	0.448	0.465	0.454	0.571	0.435	0.448	0.603	0.476	0.537	0.554	0.868	0.397	0.572
LYSINYLHFGE [KDM4C_Y201]	2.05	10.7	9.01	3.6	3.52	11.1	1.57	3.5	3.5	1.1	11	2.08	2.56	1.54	2.6	1.31
LADKPYTFEFF [FXN_Y118_D122Y_YF]	1.78	0.764	0.683	0.649	0.952	1.25	1.82	1.47	0.644	1.58	1.22	1.19	2.87	0.742	0.719	0.675
KFGTNYRVGSS [CPO_Y278_YF]	1.04	0.422	0.382	0.509	0.567	0.418	0.803	0.444	0.465	0.767	0.508	0.725	0.466	1.23	0.914	0.586
EKKDVYKAGEQ [CFH_Y1008]	1.08	0.336	0.643	0.434	0.482	0.624	0.675	0.404	0.386	0.555	0.425	0.475	0.394	0.954	0.549	0.596
LPKVSYMKAID [GLRA1_Y307_V308M]	0.941	0.632	0.711	0.481	0.77	0.65	0.911	0.694	0.406	0.707	0.484	0.967	0.574	0.995	0.731	0.473
NTGVFYDLFGG [PTPN11_Y63_D61V_YF]	0.99	0.609	0.986	0.455	0.638	2.86	1.12	3.21	2.84	0.958	7.01	0.797	4.82	0.59	0.766	0.743
SDVLSYGVTMW [ZAP70_Y525_W523L]	0.922	0.626	0.604	0.493	0.642	0.523	1.03	0.449	0.475	1.04	0.342	0.645	0.531	0.837	0.699	0.474
GGRIDYIAGLD [APRT_Y60]	0.898	0.85	0.417	0.447	0.545	0.521	0.829	0.409	0.52	0.708	0.46	0.582	0.422	0.789	0.728	0.498
KSMSVYCTPNK [ATP2A2_Y497]	1.13	0.696	0.702	0.473	0.632	0.509	0.94	0.699	1	0.581	0.653	1.38	0.455	1.08	0.686	0.948
FYRNVYHLASV [RBL1_Y796_K794N]	0.728	0.611	0.587	0.464	0.556	0.417	0.635	1.93	0.648	0.484	0.371	0.429	1	0.745	0.699	2
SISLKYEGRVF [ABL1_Y167_R166K_YF]	1.05	0.655	0.609	0.482	0.771	0.565	1.31	0.477	0.553	1.13	0.382	0.661	0.398	0.86	0.987	0.489
QRRNVYFFSFL [PTEN_Y176_Y174N_YF]	1.11	0.649	0.475	0.562	0.728	0.398	1.42	1.15	0.34	1.13	0.5	0.509	0.67	1.13	1.8	0.92
ISSLDYISKSK [VAV3_Y294_T298S]	0.648	0.38	0.467	0.458	0.587	0.443	0.688	0.431	0.443	0.743	0.482	0.81	0.478	0.781	0.629	0.365
RDHFGYRQSVT [CD55_Y245_YF]	0.722	0.603	0.33	0.471	0.791	0.427	0.702	0.435	0.489	0.572	0.474	0.538	0.626	0.644	0.82	0.629

Sequence	phosphorylation enrichment (AncSZ)	phosphorylation enrichment (EPHB1)	phosphorylation enrichment (EPHB2)	phosphorylation enrichment (FGFR1)	phosphorylation enrichment (FGFR3)	phosphorylation enrichment (Fer (mouse))	phosphorylation enrichment (Fes)	phosphorylation enrichment (Fyn)	phosphorylation enrichment (Hck)	phosphorylation enrichment (Jak2)	phosphorylation enrichment (MERTK)	phosphorylation enrichment (c-Abl (mouse))	phosphorylation enrichment (c-Src)	SH2 binding enrichment (Grb2 SH2)	SH2 binding enrichment (SHP2-C SH2)	SH2 binding enrichment (c-Src SH2)
HNVPIYEGYGL [ACTA1_Y168_A172G]	1.52	31.8	41.9	0.666	0.941	27.9	5.48	20	17.4	0.805	10.9	3.23	11.5	0.755	0.886	1.33
DMQTLYVNTAA [SMCHD1_Y403]	0.647	0.428	0.64	0.471	0.478	0.482	0.588	0.485	0.578	0.518	0.513	0.734	0.418	4.57	0.643	0.635
CTTIHYIFMCN [TP53_Y234_N235I_YF]	0.946	0.511	0.554	0.416	0.657	0.436	1.05	0.418	0.331	0.918	0.327	0.695	0.324	1.19	1.1	0.858
CFSSEYHFVGG [CTSC_Y345_Y340C_YF]	2.64	1.87	1.96	10.4	7.23	0.753	1.11	0.992	1.35	1.61	2.02	1.19	1.85	0.944	0.694	0.652
LTERGYSFTTT [ACTB_Y198]	0.837	0.472	0.492	0.504	0.78	0.554	0.758	0.456	0.432	0.756	0.408	0.586	0.46	0.746	0.654	0.596
YDCGMYSHLQG [LGR4_Y848]	1.47	1.5	1.29	1.04	1	2.87	1.21	2.36	5.59	0.944	7.03	2.38	3.69	1.03	0.811	2.85
ATGGFYSFGGG [KRT24_Y120_YF]	0.678	0.7	0.499	0.481	0.502	2.46	0.953	3.93	1.83	0.706	7.38	0.562	1.83	0.749	0.569	0.425
SLMGCYNLTFM [HS6ST3_Y323_V320M]	1.46	0.65	0.655	0.546	1.02	1.35	1.63	0.592	0.724	1.61	0.56	1.14	0.955	0.823	0.542	0.459
ITGNGYYFRVF [MYBPC3_Y1135_I1131T]	1.04	0.561	0.589	0.41	0.72	0.488	1.08	0.384	0.385	0.936	0.294	0.701	0.301	0.665	0.799	0.475
CTTIHYDYMCN [TP53_Y234_N235D]	1.31	0.644	0.723	0.687	0.631	1.17	0.994	0.657	0.635	1.03	0.591	0.708	0.675	0.983	1.48	8.99
VDLIVYLRTNP [TK2_Y181]	1.12	0.65	0.589	0.358	0.711	0.432	1.26	0.434	0.352	1.06	0.328	0.875	0.364	0.709	0.623	0.468
PFDAEYGGGGG [AKR1B10_Y316_N313D]	1.81	0.843	1.48	1.16	1.09	0.784	1.5	1.13	1.14	1.66	0.783	1.31	0.918	0.747	0.798	0.378
RVILRYVNPGN [LAMA3_Y791_T796N]	1.47	0.836	0.711	0.614	1.12	0.609	2.02	0.617	0.775	1.79	0.709	1.61	0.75	1.17	0.873	0.944
ESMLRYDVYGG [STOX1_Y607_E608D]	0.96	0.646	1.08	0.482	0.705	0.462	0.972	1.04	1.3	0.704	0.918	0.529	1.29	0.996	0.62	0.723
ITNLLYHLVGW [GBA_Y412_V414L]	1.09	2.74	1.04	6.54	5.47	3.17	0.866	2.56	4.8	1.47	8.16	0.703	2.99	1.72	1.84	1.49
PMQLPYDSRWE [PDGFRA_Y582]	1.05	0.472	0.623	0.523	0.712	0.485	0.854	0.665	0.706	0.821	0.353	0.577	0.893	1.14	0.6	0.605
